Results reported in paper PMC12019173, “Liganded magnetic nanoparticles for magnetic resonance imaging of α-synuclein” (NPJ Parkinson's Disease, 2025).
No end group written: not given here.

Key:
Settings in all cases: both partners purified
[1] = target: T1, recombinant α-synuclein fibrils (human, UniProt P37840 1-140); test: SPR; α-syn fibrils on the SPR chip, LMNPs flowed over; LMNPs would not dissociate, no Kd calculated
[2] = target: DLB brain-derived α-synuclein fibrils (human (endogenous in brain tissue), UniProt P37840 1-140); test: negative-stain transmission electron microscopy; brain-derived (sarkosyl-insoluble) fibrils mixed with R8-LMNPs (3 μg/mL), 4 °C overnight, 2% uranyl acetate
[3] = target: MSA brain-derived α-synuclein fibrils (human (endogenous in brain tissue), UniProt P37840 1-140); test: as above
[4] = target: T1, recombinant α-synuclein fibrils; test: SPR; short, sonicated α-syn fibrils immobilised on a CM5 chip, BiaCore T200; peptides 300 nM to 10 μM in PBS; steady state analysis, 1:1 binding model; apparent Kd

Binder	binding result [1]	binding result [2]	binding result [3]	Kd [4] [nM]
RVGGARVWGVRKKGRKKRRQRRRPQ (other, also: covalently coupled to amine-functionalized dextran-coated iron oxide nanoparticle, two-lysine linker; cell penetrating peptide; Multiple R8 ligands on each nanoparticle (multivalent, avidity); also called R8-LMNPs; R8-LMNP) [R8-liganded magnetic nanoparticles]	binds	binds	binds	–
GAVVWGVTAVKKGRKKRRQRRRPQ (other, also: covalently coupled to amine-functionalized dextran-coated iron oxide nanoparticle, two lysine linker; cell penetrating peptide; Multivalent; also called 24mer-LMNPs) [24mer-liganded magnetic nanoparticles]	binds	–	–	–
GAVVWGVTAVKKGRKKRRQRRRPQ (designed binder, two lysine linker; cell penetrating peptide; 24 residues; also called 24-residue peptide) [24mer]	–	–	–	3700
RVGGARVWGVRKKGRKKRRQRRRPQ (designed binder, two-lysine linker; cell penetrating peptide (the methods call it the Tat peptide; detected with an anti-HIV-1 tat antibody); 25 residues; also called R8 peptide; source: synthetic peptide (Genscript or LifeTein)) [R8]	–	–	–	470
